Measurements taken from PMC10747430, “^99mTc-Labeled Cyclic Peptide Targeting PD-L1 as a Novel Nuclear Imaging Probe” (Pharmaceutics, 2023).

Tests used:
[1] = test system: HCC827 lung cancer tumors; test: Biodistribution in mice bearing HCC827 tumors; format: in vivo, mouse; details: mean over 1, 3 and 24 h
Experimental: All animal procedures were performed following the Institutional Animal Care and Use Committee requirements under an approved protocol (No. 09-2018-2022) and the Ethical Regulations for the Handling of Laboratory Animals (NOM-062-ZOO-1999). Male Nu/Nu (CINVESTAV, I.PN., Mexico City, Mexico) mice, 6–8 weeks of age, were maintained in an aseptic barrier environment. Mice were inoculated by subcutaneous injection of 1 × 10^6 HCC827 cells/0.1 mL PBS into the upper back. Injection sites were monitored periodically for tumor progression. On day ten after tumor cell inoculation, animals were injected with 18.5 MBq (50 µL) of [^99mTc]Tc-iPD-L1 or 18.5 MBq (50 µL) of [^99mTc]Tc-WL12 by tail vein injection. The animals were sacrificed at 1, 3, and 24 h (n = 3). Kidneys, lungs, heart, liver, spleen, pancreas, small intestine, stomach, muscle, and blood and tumor samples were dissected. Radioactivity was determined in a sodium iodide detector. The results were stated as % injected dose/g.
After 24 h, the activity in tumors was 3.21 ± 0.45 %ID/g ([^99mTc]Tc-WL12) and 5.65 ± 0.98 %ID/g ([^99mTc]Tc-iPD-L1). […] This behavior is related to the higher lipophilicity of [^99mTc]Tc-iPD-L1 compared to [^99mTc]Tc-WL12.

[2] = test system: HCT116 cells (PD-L1 positive); test: Cellular uptake and internalization, HCT116; format: cell-based, human; details: HCT116, 1 × 10^6 cells/tube, 7.4 kBq, 37 °C, 1 h, n = 3
Experimental: Human colorectal cancer HCT116 (PD-L1 positive: 45.1 nTPM), human lung cancer HCC827 (PD-L1 positive: 27.1 nTPM), and […] C6 glioma cells (PD-L1 negative control) were obtained from ATCC (Atlanta, GA, USA). FBS, RPMI, and cell culture medium were obtained from Bovine and Biology (CDMX, MX). Cells were cultured in RPMI medium (5% CO2; 100 µg/mL penicillin, 15% fetal bovine serum, and 100 µg/mL streptomycin; 37 °C).
Cells diluted in phosphate-buffered saline (PBS) (pH 7.4) (1 × 10^6 cells/tube) received three different treatments: (a) [^99mTc]Tc-iPD-L1 (7.4 kBq) (n = 3), (b) and [^99mTc]Tc-WL12 (7.4 kBq) (n = 3), and (c) ^99mTcO4Na (7.4 kBq) (n = 3). Cells were incubated with each treatment at 37 °C for one hour. After incubation, tubes were measured in a NaI(Tl) detector (NML Inc., Houston, TX, USA) to establish the initial or first activity (100%). The tubes were spun at 500 g for 10 min, rinsed once with PBS, and spun once more. The liquid was removed, and the activity in the button was determined, indicating the percentage of cellular uptake (surface uptake) regarding the initial or first activity. Acetic acid/0.5 M NaCl was added, the tubes were centrifuged, and the activity was measured. The liquid was removed, and activity in button activity represented the percentage of activity internalized by cells relative to uptake activity (internalization fraction of surface uptake). […]

[3] = Serum protein binding; format: in vitro ADME; details: human serum (diluted 5x), 37 °C, size-exclusion radio-HPLC, n = 3
Experimental: (§1) The stability of [^99mTc]Tc-iPD-L1 and [^99mTc]Tc-WL12 was evaluated by diluting the samples in human serum (5x). The radiopharmaceuticals (n = 3) were heated at 37 °C and analyzed at 0.5, 3, and 24 h for radiochemical purity by size-exclusion radio-HPLC (ProteinPak 300SW, Waters Corporation, Milford, CT, USA).
(§2) The radioactivity from [^99mTc]Tc-iPD-L1 bound to serum proteins was 1.3 ± 0.8% at 30 min, 3.2 ± 1.3% at 3 h, and 7.6 ± 1.9% at 24 h. High radiochemical stability (>90% at 24 h) was also observed. In the case of [^99mTc]Tc-WL12, protein binding was 1.0 ± 0.4% at 30 min, 3.3 ± 0.9% at 3 h, and 6.0 ± 1.3% at 24 h, with a radiochemical purity of >90% at 24 h. Therefore, there was no significant difference […] in protein binding and serum stability between the radiotracers.

[4] = Stability in human serum; format: in vitro ADME; details: human serum (diluted 5x), 37 °C, n = 3
Experimental: as §1, §2

Compound: CCCC[C@H]1C(=O)N(C)[C@@H](CCCC)C(=O)N[C@@H](CCCNC(=O)c2ccc(NN)nc2)C(=O)N[C@H](C(=O)NCC(N)=O)CSCC(=O)N[C@@H](Cc2ccc(O)cc2)C(=O)N(C)[C@@H](C)C(=O)N[C@@H](CC(N)=O)C(=O)N2CCC[C@H]2C(=O)N[C@@H](Cc2c[nH]cn2)C(=O)N[C@@H](CC(C)C)C(=O)N2C[C@H](O)C[C@H]2C(=O)N[C@@H](Cc2c[nH]c3ccccc23)C(=O)N[C@@H](CO)C(=O)N[C@@H](Cc2cn(C)c3ccccc23)C(=O)N1C [[^99mTc]Tc-WL12, metal not drawn]
- mean percentage of tumor uptake over time (two-way ANOVA) [1]: 6.617
- uptake and internalization compared to C6 cells (PD-L1 negative) [2]: significantly higher
- radioactivity bound to serum proteins at 30 min ([3]; 30 min): 1.0 ± 0.4%
- radioactivity bound to serum proteins at 3 h ([3]; 3 h): 3.3 ± 0.9%
- radioactivity bound to serum proteins at 24 h ([3]; 24 h): 6.0 ± 1.3%
- stability in human serum ([4]; 30 min, 3 h and 24 h, size-exclusion radio-HPLC): remained stable
- remaining at 24 h ([4]; 24 h, size-exclusion radio-HPLC (ProteinPak 300SW), read-out: radiochemical stability / radiochemical purity in human serum at 24 h): > 90%
